Measurements from paper PMC5663926, “In vivo near-infrared imaging of ErbB2 expressing breast tumors with dual-axes confocal endomicroscopy using a targeted peptide” (Scientific Reports, 2017).
Where two headings read alike, the source gives them in different places. Residues, ends and D or L forms follow the SMILES beside them. *: point of attachment. X1 = CC1(C)C(/C=C/C2=C(Oc3ccc(S(=O)(=O)O)cc3)C(=C/C=C3/N(CCCCS(=O)(=O)[O-])c4ccc(S(=O)(=O)O)cc4C3(C)C)/CCC2)=[N+](CCCCCC(=O)NCCN2C(=O)CC(*)C2=O)c2ccc(S(=O)(=O)O)cc21

Tests used:
[1] = system: BT474 and MDA-MB-231 human xenograft breast tumors in nude mice; assay: In vivo photoacoustic imaging of peptide uptake in xenograft breast tumors; design: species or system nude mouse
Procedure: (§1) BT474 cells were diluted in growth factor reduced (GFR) Matrigel Matrix (Corning), and injected into one flank of female nude athymic mice (002019 Foxn1 , Jackson Laboratory) at 4–6 weeks of age with weight between 20–25 grams. A 0.18 mg 17-β-Estradiol pellet (#SE-121, Innovative Research of America) with 60 day release form was placed subcutaneously around the neck 1 day prior to tumor implantation to stimulate tumor growth. ∼1 × 10^7 cells were implanted for each tumor, and 2–3 implantations were performed in each mouse. MDA-MB-231 tumors were generated similarly except without Matrigel Matrix injection and only one implantation was performed in each mouse. Tumor size was monitored by ultrasound and MRI weekly. For all in vivo animal experiments, anesthesia was induced and maintained with inhaled isoflurane mixed with oxygen at a concentration of 2–4% at a flow rate of ~0.5 L/min via a nose cone.
(§2) We used photoacoustic tomography (Nexus128, Endra Inc) to measure peptide uptake by the human xenograft breast tumors. This system provides laser excitation with 7 ns pulses, 25 mJ/pulse, […] repetition rate, and tunable wavelength from 680 nm to 950 nm. The acoustic signal was collected with 128 unfocused (3 mm diameter) ultrasound transducers with 5 MHz center frequency assembled in a hemispherical bowl in a helical pattern. Water was added to the bowl to transmit the acoustic signal. We collected photoacoustic images with 120 views at 60 pulses/view. Each image covered a volume of 25 × 25 × 25 mm^3 with a voxel size of 280 μm^3, and each dataset required ~6–7 min for acquisition.
(§3) For imaging, the animals were placed inside a tray with the tumor positioned inside a water-filled dimple that couples the ultrasound signal. KSP*-IR800 was injected via tail vein at a concentration of 300 μM in a volume of 250 μL. Photoacoustic images were acquired at 0, 1, 2, 3, 6, 12, and 24 hours post-injection using λex = 780 nm excitation. PPS*-IR800 was administered in the same animal 48 hours later for control after the target peptide cleared as defined by T/B ratio returning to ∼1. IRDye800 (fluorophore without peptide) at the same concentration was also administered for control.
(§4) After completion of imaging, 3D images were reconstructed using data acquired from all 128 transducers at each view using a back-projection algorithm to correct for variations in laser intensity from pulse-to-pulse and small changes in temperature that affect the velocity of acoustic waves in water. The reconstructed raw data was analyzed using Osirix 6.5.2 software (Pixmeo) to generate a maximum intensity projection (MIP) image. To calculate the T/B ratio, the mean photoacoustic signal was measured from the tumor (target) using a circular ROI function on 2D MIP images. For background, we used the same ROI as that for the tumor prior to injection of peptide. The adjacent annulus with same area was used measure the background.

[2] = Sprague-Dawley rats; cited from earlier work
Description: We validated specific binding of this peptide labeled with IRDye800CW to ErbB2 using siRNA knockdown and competition with cells in vitro and with immunohistochemistry and immunofluorescence studies on tissue specimens using known monoclonal anti-ErbB2 antibodies. Also, we have previously used peptides labeled with fluorescein isothiocyanate (FITC) in human clinical studies in hollow organs[25],[26]. We used IRDye800CW to image breast can ...

[3] = Histology (H&E) for acute toxicity; format: in vivo, mouse; settings: mice euthanized after imaging; KSP*-IR800 by tail vein
Description: (§5) High peptide uptake seen from the kidneys is consistent with renal clearance.

[4] = In vivo photoacoustic imaging of peptide uptake in xenograft breast tumors; design: species or system human xenograft, nude mouse; settings: female, nude athymic (002019 Foxn1 <nu>), mouse, in vivo, iv, 75 nmol per mouse, BT474 and MDA-MB-231 tumors, tail vein, 300 μM in 250 μL
Procedure: as §1, §2, §3, §4

[5] = system: tumor and internal organs of tumor-bearing mouse; assay: Peptide biodistribution ex vivo; format: in vivo; settings: n = 5 mice
Description: as §5
Figure 5 Peptide biodistribution. […] Strong signal from kidneys support renal clearance. (C) Quantified fluorescence intensities are shown for tumor and other organs from n = 5 mice. We fit a two-way ANOVA model to log-transformed data with terms for 11 tissues and 5 mice and tested each tissue mean against the mean for tumors. Kidney had 1.7 times more intense signals on average (P = 0.03), while all other tissues had at least 2-fold lower signals than tumor on average (P = 0.008 for lung was the largest P-value).

SMILES	time of peak signal ([1]; IRDye800 without peptide, same concentration, post-injection)	photoacoustic tumor signal of fluorophore alone ([1]; IRDye800 without peptide, same concentration, qualitative)	intravenous dose up to which safety was published [2]	acute toxicity on histology (H&E) [3]	time of rapid tumor uptake ([1]; photoacoustic tomography, systemic administration, nude mice (Discussion))	T/B ratio at ∼24 hours (clearance) ([1]; ∼24 hours post-injection, tail vein, 300 μM in 250 μL)	time after injection ([4]; read-out: time to return to baseline levels (T/B ratio))	time after injection ([4]; λex = 780 nm, read-out: time of peak peptide uptake (T/B ratio))	kidney signal relative to tumor (times more intense) ([5]; 1 hour after injection, two-way ANOVA, P = 0.03)	signal in all other tissues than kidney, fold lower than tumor ([5]; liver, heart, stomach, brain, lung, spleen, small intestine, cecum, colon, 1 hour after injection, largest P = 0.008 (lung))	fluorescence intensity from tumor compared with other organs ([5]; qualitative)
CC1(C)C(/C=C/C2=C(Oc3ccc(S(=O)(=O)O)cc3)C(=C/C=C3/N(CCCCS(=O)(=O)O)c4ccc(S(=O)(=O)[O-])cc4C3(C)C)/CCC2)=[N+](CCCCCC(=O)O)c2ccc(S(=O)(=O)O)cc21 [IRDye800, reference compound]	2 h	significantly lower signal	up to 20 mg/kg	–	–	–	–	–	–	–	–
CC1(C)C(/C=C/C2=C(Oc3ccc(S(=O)(=O)O)cc3)C(=C/C=C3/N(CCCCS(=O)(=O)[O-])c4ccc(S(=O)(=O)O)cc4C3(C)C)/CCC2)=[N+](CCCCCC(=O)NCCN2C(=O)CC(SC[C@H](NC(=O)[C@H](CO)NC(=O)CNC(=O)CNC(=O)CNC(=O)[C@H](Cc3ccccc3)NC(=O)[C@H](CCCNC(=N)N)NC(=O)[C@@H]3CCCN3C(=O)[C@H](CC(N)=O)NC(=O)[C@@H]3CCCN3C(=O)[C@H](CO)NC(=O)[C@@H](N)CCCCN)C(N)=O)C2=O)c2ccc(S(=O)(=O)O)cc21 (some centres unmarked) [KSP*-IR800] (H-KSPNPRFGGGSC(X1)-NH2)	–	–	–	no acute toxicity	~1 h	~1	~24	1	1.7 times	at least 2 fold	significantly greater fluorescence intensity from the tumor
